Reference: the supplement of paper PMC10567573

B1: RAD54B (parent)
chain: YVQEKRDGLKRRQQLEEELLRAKI
B2: VPS39 (parent)
chain: TTLLKCYLHTNVALVAPLLRLENN

Variants of: B1
Assay: protein stability index of a GFP-peptide fusion (GPS, HEK-293T) (PSI 1-6); higher = more stable
Conditions: c terminus: a fixed tail appended
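Note: lentivirally expressed fusions sorted by FACS into six bins by GFP to DsRed ratio, PSI derived from sequencing read proportions per bin multiplied by bin number.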

Going from YVDEKRDGLKRRQQLEEELLRAKI [Q3D] to YVMEKRDGLKRRQQLEEELLRAKI [Q3M], the protein stability index falls from 2.97 to 1.64.

Going from YVHEKRDGLKRRQQLEEELLRAKI [Q3H] to YVYEKRDGLKRRQQLEEELLRAKI [Q3Y], the protein stability index falls from 1.91 to 1.8.

Going from YVEEKRDGLKRRQQLEEELLRAKI [Q3E] to YVREKRDGLKRRQQLEEELLRAKI [Q3R], the protein stability index falls from 2.35 to 1.83.

First: YVCEKRDGLKRRQQLEEELLRAKI [Q3C]
Second: YVNEKRDGLKRRQQLEEELLRAKI [Q3N]
The protein stability index of the first is lower: 2.01 for the first, 2.05 for the second.

Compared with YVIEKRDGLKRRQQLEEELLRAKI [Q3I], YVFEKRDGLKRRQQLEEELLRAKI [Q3F] is higher in protein stability index: 1.77 for the first, 1.95 for the second.

First: YVLEKRDGLKRRQQLEEELLRAKI [Q3L]
Second: YVAEKRDGLKRRQQLEEELLRAKI [Q3A]
The protein stability index of the first is lower: 1.75 for the first, 1.98 for the second.

Going from YVKEKRDGLKRRQQLEEELLRAKI [Q3K] to YVWEKRDGLKRRQQLEEELLRAKI [Q3W], the protein stability index rises from 1.81 to 2.43.

First: YVPEKRDGLKRRQQLEEELLRAKI [Q3P]
Second: YVGEKRDGLKRRQQLEEELLRAKI [Q3G]
The protein stability index of the first is higher: 2.43 for the first, 1.9 for the second.

Compared with YVTEKRDGLKRRQQLEEELLRAKI [Q3T], YVVEKRDGLKRRQQLEEELLRAKI [Q3V] is lower in protein stability index: 2.94 for the first, 2.48 for the second.

Going from YVSEKRDGLKRRQQLEEELLRAKI [Q3S] to YVQFKRDGLKRRQQLEEELLRAKI [E4F], the protein stability index rises from 1.75 to 1.89.

Compared with YVQAKRDGLKRRQQLEEELLRAKI [E4A], YVQWKRDGLKRRQQLEEELLRAKI [E4W] is lower in protein stability index: 1.83 for the first, 1.62 for the second.

Going from YVQDKRDGLKRRQQLEEELLRAKI [E4D] to YVQHKRDGLKRRQQLEEELLRAKI [E4H], the protein stability index falls from 1.68 to 1.6.

Compared with YVQQKRDGLKRRQQLEEELLRAKI [E4Q], YVQSKRDGLKRRQQLEEELLRAKI [E4S] is higher in protein stability index: 1.68 for the first, 2.9 for the second.

First: YVQCKRDGLKRRQQLEEELLRAKI [E4C]
Second: YVQRKRDGLKRRQQLEEELLRAKI [E4R]
The protein stability index of the first is higher: 2.57 for the first, 2.31 for the second.

First: YVQPKRDGLKRRQQLEEELLRAKI [E4P]
Second: YVQIKRDGLKRRQQLEEELLRAKI [E4I]
The protein stability index of the first is higher: 2.23 for the first, 1.35 for the second.

First: YVQTKRDGLKRRQQLEEELLRAKI [E4T]
Second: YVQVKRDGLKRRQQLEEELLRAKI [E4V]
The protein stability index of the first is lower: 1.49 for the first, 1.6 for the second.

Compared with YVQLKRDGLKRRQQLEEELLRAKI [E4L], YVQKKRDGLKRRQQLEEELLRAKI [E4K] is higher in protein stability index: 1.67 for the first, 2.28 for the second.

Compared with YVQNKRDGLKRRQQLEEELLRAKI [E4N], YVQGKRDGLKRRQQLEEELLRAKI [E4G] is higher in protein stability index: 1.89 for the first, 2.13 for the second.

Going from YVQYKRDGLKRRQQLEEELLRAKI [E4Y] to YVQMKRDGLKRRQQLEEELLRAKI [E4M], the protein stability index falls from 2.28 to 1.84.

Compared with MVQEKRDGLKRRQQLEEELLRAKI [Y1M], IVQEKRDGLKRRQQLEEELLRAKI [Y1I] is lower in protein stability index: 3.95 for the first, 3.14 for the second.

Going from GVQEKRDGLKRRQQLEEELLRAKI [Y1G] to AVQEKRDGLKRRQQLEEELLRAKI [Y1A], the protein stability index falls from 4.19 to 3.7.

Going from QVQEKRDGLKRRQQLEEELLRAKI [Y1Q] to KVQEKRDGLKRRQQLEEELLRAKI [Y1K], the protein stability index rises from 3.42 to 3.74.

First: WVQEKRDGLKRRQQLEEELLRAKI [Y1W]
Second: FVQEKRDGLKRRQQLEEELLRAKI [Y1F]
The protein stability index of the first is higher: 3.92 for the first, 1.79 for the second.

Going from NVQEKRDGLKRRQQLEEELLRAKI [Y1N] to CVQEKRDGLKRRQQLEEELLRAKI [Y1C], the protein stability index falls from 3.74 to 3.52.

Going from DVQEKRDGLKRRQQLEEELLRAKI [Y1D] to VVQEKRDGLKRRQQLEEELLRAKI [Y1V], the protein stability index falls from 4.4 to 2.81.

First: HVQEKRDGLKRRQQLEEELLRAKI [Y1H]
Second: LVQEKRDGLKRRQQLEEELLRAKI [Y1L]
The protein stability index of the first is higher: 3.91 for the first, 3.56 for the second.

Going from PVQEKRDGLKRRQQLEEELLRAKI [Y1P] to EVQEKRDGLKRRQQLEEELLRAKI [Y1E], the protein stability index falls from 3.89 to 3.68.

First: RVQEKRDGLKRRQQLEEELLRAKI [Y1R]
Second: TVQEKRDGLKRRQQLEEELLRAKI [Y1T]
The protein stability index of the first is higher: 3.77 for the first, 3.59 for the second.

Going from SVQEKRDGLKRRQQLEEELLRAKI [Y1S] to YCQEKRDGLKRRQQLEEELLRAKI [V2C], the protein stability index falls from 4.37 to 3.08.

First: YQQEKRDGLKRRQQLEEELLRAKI [V2Q]
Second: YKQEKRDGLKRRQQLEEELLRAKI [V2K]
The protein stability index of the first is lower: 3.31 for the first, 3.82 for the second.

Compared with YTQEKRDGLKRRQQLEEELLRAKI [V2T], YEQEKRDGLKRRQQLEEELLRAKI [V2E] is higher in protein stability index: 3.75 for the first, 4.64 for the second.

Going from YGQEKRDGLKRRQQLEEELLRAKI [V2G] to YHQEKRDGLKRRQQLEEELLRAKI [V2H], the protein stability index falls from 4.12 to 2.55.

First: YPQEKRDGLKRRQQLEEELLRAKI [V2P]
Second: YSQEKRDGLKRRQQLEEELLRAKI [V2S]
The protein stability index of the first is lower: 3.2 for the first, 4.01 for the second.

Going from YDQEKRDGLKRRQQLEEELLRAKI [V2D] to YNQEKRDGLKRRQQLEEELLRAKI [V2N], the protein stability index falls from 4.46 to 3.73.

Compared with YFQEKRDGLKRRQQLEEELLRAKI [V2F], YAQEKRDGLKRRQQLEEELLRAKI [V2A] is higher in protein stability index: 3.62 for the first, 3.72 for the second.

Going from YLQEKRDGLKRRQQLEEELLRAKI [V2L] to YIQEKRDGLKRRQQLEEELLRAKI [V2I], the protein stability index falls from 3.41 to 2.84.

Compared with YYQEKRDGLKRRQQLEEELLRAKI [V2Y], YWQEKRDGLKRRQQLEEELLRAKI [V2W] is lower in protein stability index: 3.56 for the first, 3.35 for the second.

First: YRQEKRDGLKRRQQLEEELLRAKI [V2R]
Second: YMQEKRDGLKRRQQLEEELLRAKI [V2M]
The protein stability index of the first is higher: 3.82 for the first, 3.65 for the second.

First: YVQEMRDGLKRRQQLEEELLRAKI [K5M]
Second: YVQENRDGLKRRQQLEEELLRAKI [K5N]
The protein stability index of the first is higher: 2.25 for the first, 2.19 for the second.

Going from YVQEHRDGLKRRQQLEEELLRAKI [K5H] to YVQEERDGLKRRQQLEEELLRAKI [K5E], the protein stability index rises from 2.26 to 3.57.

First: YVQEFRDGLKRRQQLEEELLRAKI [K5F]
Second: YVQEARDGLKRRQQLEEELLRAKI [K5A]
The protein stability index of the first is higher: 2.49 for the first, 1.96 for the second.

Compared with YVQEIRDGLKRRQQLEEELLRAKI [K5I], YVQEDRDGLKRRQQLEEELLRAKI [K5D] is higher in protein stability index: 2.77 for the first, 3.46 for the second.

First: YVQELRDGLKRRQQLEEELLRAKI [K5L]
Second: YVQEQRDGLKRRQQLEEELLRAKI [K5Q]
The protein stability index of the first is lower: 1.96 for the first, 2.48 for the second.

Compared with YVQEGRDGLKRRQQLEEELLRAKI [K5G], YVQEPRDGLKRRQQLEEELLRAKI [K5P] is higher in protein stability index: 1.91 for the first, 2.05 for the second.

YVQECRDGLKRRQQLEEELLRAKI [K5C] gave a protein stability index of 2.16.

Variants of: B2
Assay: as above
Conditions: c terminus: a fixed tail appended

First: TTLLKCYLHTNVALVAPLLRWENN [L21W]
Second: TTLLKCYLHTNVKLVAPLLRLENN [A13K]
The protein stability index of the first is lower: 2.05 for the first, 2.63 for the second.

Compared with TTLLKCYLHTNVALTAPLLRLENN [V15T], TTLLKCYSHTNVALVAPLLRLENN [L8S] is lower in protein stability index: 2.11 for the first, 1.44 for the second.

Variant TTLLKCYEHTNVALVAPLLRLENN [L8E] has a protein stability index of 1.85.
